From patent USRE49495E1, “Binding polypeptides having a mutated scaffold” (Affibody AB, priority 2013, dated 2023)

Legend:
[1] = target: T1, human PDGF-Rβ (R&D Systems, cat. no. 385-PR-100/CF) (human, UniProt P09619 33-530, limits assumed); experiment: SPR Biacore 2000, PDGF-Rβ on CM5 chip, 1:1 binding with mass transfer; sample (0) before stability test
T1 construct: Bought; also called platelet-derived growth factor receptor beta

[2] = target: T1, human PDGF-Rβ (R&D Systems, cat. no. …); experiment: SPR Biacore 2000, PDGF-Rβ on CM5 chip, 1:1 binding with mass transfer; sample (2w) after 2 weeks at 37 C
[3] = target: T1, human PDGF-Rβ (R&D Systems, cat. no. …); experiment: SPR Biacore 2000, PDGF-Rβ on CM5 chip, 1:1 binding with mass transfer; KD after 2 weeks at 37 C against KD before
[4] = target: T1, human PDGF-Rβ (R&D Systems, cat. no. …); experiment: SPR Biacore 2000, PDGF-Rβ on CM5 chip, 1:1 binding with mass transfer; sample (0) before stability test; reference Z15805 (0)
[5] = target: T1, human PDGF-Rβ (R&D Systems, cat. no. …); experiment: SPR Biacore 2000, PDGF-Rβ on CM5 chip, 1:1 binding with mass transfer; sample (2w) after 2 weeks at 37 C; reference Z15805 (2w)
[6] = target: T2, human C5 (Quidel, cat. no. A403) (human, UniProt P01031 19-673; P01031 678-1676, limits assumed); experiment: BLI (ForteBio), compound captured on HSA sensor, human C5 0.79-25 nM, 1:1 model
T2 construct: Bought protein; also called hC5; human complement component 5

T1 sequence (P09619 33-530 limits assumed): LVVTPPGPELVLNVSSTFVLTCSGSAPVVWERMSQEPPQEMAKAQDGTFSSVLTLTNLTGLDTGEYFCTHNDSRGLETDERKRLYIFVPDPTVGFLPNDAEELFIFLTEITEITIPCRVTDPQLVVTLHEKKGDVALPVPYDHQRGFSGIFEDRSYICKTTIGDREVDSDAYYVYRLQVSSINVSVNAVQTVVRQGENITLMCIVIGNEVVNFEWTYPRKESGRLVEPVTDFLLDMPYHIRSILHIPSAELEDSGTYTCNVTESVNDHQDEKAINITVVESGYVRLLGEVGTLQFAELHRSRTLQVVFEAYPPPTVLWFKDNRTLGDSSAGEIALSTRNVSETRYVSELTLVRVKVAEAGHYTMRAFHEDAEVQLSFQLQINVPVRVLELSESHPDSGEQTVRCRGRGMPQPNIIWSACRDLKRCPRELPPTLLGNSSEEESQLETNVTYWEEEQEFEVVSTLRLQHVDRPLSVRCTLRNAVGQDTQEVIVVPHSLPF

| Kd [1] [nM] | koff [1] [s⁻¹] | kon [1] [M⁻¹ s⁻¹] | Kd [2] [nM] | koff [2] [s⁻¹] | kon [2] [M⁻¹ s⁻¹] | KD(2w)/KD(0) [3] [ratio] | KDInv/KDOrig [4] [ratio] | KDInv/KDOrig [5] [ratio] | Rel. KD [6] | Binder |
| --- | --- | --- | --- | --- | --- | --- | --- | --- | --- | --- |
| 1.2 | 0.0616 | 5.15e+07 | 1.1 | 0.0623 | 5.62e+07 | 0.93 | 6.19 | 3.88 | – | Z17344 (designed binder) MGSSHHHHHHLQAEAKYAKELIEAAAEIDALPNLTRRQWNAFIKKLVRQPEQSSELLSEAKKLSESQAPK |
| – | – | – | – | – | – | – | – | – | 2.1 ratio to PSI0242 | PSI0383 (designed binder, positions 52-53 changed from ND to SE against PSI0242) AEAKYAKEVLEAWDEIDRLPNLTIEQWLAFINKLDRQPEQSSELLSEAKKLSESQAPKVEGSLAEAKEAANAELDSYGVSDFYKRLIDKAKTVEGVEALKDAILAALP |
